Data: patent publication US10208121B2, “Anti-Axl antagonistic antibodies” (BERGEN TEKNOLOGIOVERFORING AS, priority 2014, dated 2019)
Entries after “also recorded” stand apart in the source; their conditions may differ.

What was measured:
[1] = biological target: T1, rhAxl-Fc chimera (recombinant human Axl) (Homo sapiens, UniProt P30530); assay: Biacore surface plasmon resonance kinetic affinity determination on immobilized rhAxl-Fc; format: binding; conditions: for association rate (kon): human Axl, Examples 5 and 13; for Off-rate (koff; s^−1) / On-rate (kon; M^−1s^−1): rhAxl immobilized on sensor chip, 25° C., 1:1 Langmuir binding model
T1 construct: Soluble recombinant antigens corresponding to the extracellular domains of members of the human TAM receptor family; purchased R&D Systems 154-AL
Experimental: (§1) Kinetic analysis of MAbs 10C9 and 10G5 interacting with rhAxl immobilized on the surface of the Biacore sensor chip. Overlay plots of sensograms for different antibody concentrations (1.3-666.7 nM for 10C9 and 0.3-166.7 nM for 10G5) are shown. The precise kinetic analysis was performed using BIA evaluation software and curve fitting according to 1:1 Langmuir binding model.
as §1, with “chimeric antibodies c10C9” for “MAbs 10C9”, “c10G5” for “10G5”, “c10C9” for “10C9”, “c10G5)” for “10G5)”
(§2) Affinity determination of anti-Axl antibodies 10C9 and 10G5 was performed at 25° C. by surface plasmon resonance measurements using Biacore 3000 instrument (GE Healthcare). As a solid antigen-coated surface, a sensor chip CM5 with immobilized rhAxl-Fc chimera (R&D Systems, Cat. no. 154-AL) at density 190 RU was used.
(§3) For the kinetics measurements, different concentrations of anti-Axl antibodies (from 0.3 to 666.7 nM) in HBS-EP buffer (Biacore, Cat. no. BR-1001-88) were injected at flow rate of 30 μL/min with 3 min injection time followed by 5 min dissociation (buffer alone). After each cycle, the surface was regenerated by 30 sec injection of a regeneration solution (10 mM HCl, 1 M NaCl) at flow rate 50 μL/min.
The kinetic association (on-rate, kon) and dissociation (off-rate, koff) rates were calculated using BIAevaluation software and 1:1 Langmuir binding model. The equilibrium dissociation constant (KD) was calculated as the koff/kon ratio. The half-life (t1/2) of the formed antibody-antigen complexes was calculated as the ln 2/koff ratio.
as §2, with “of the chimeric” for “of”, “c10C9” for “10C9”, “c10G5” for “10G5”
as §3, with “333.3” for “666.7”

[2] = biological target: T2, human Axl (rhAxl-Fc chimera) (Homo sapiens, UniProt P30530); assay: Biacore binding analysis on immobilized human Axl; conditions: 10 μg/mL, 25° C.
T2 construct: Soluble recombinant antigens corresponding to the extracellular domains of members of the human TAM receptor family; purchased R&D Systems 154-AL
Experimental: All binding experiments were performed using Biacore 3000 instrument (GE Healthcare) at 25° C. Soluble recombinant antigens corresponding to the extracellular domains of members of the human TAM receptor family, Axl (rhAxl-Fc chimera; R&D Systems, Cat. no. 154-AL), Mer (rhMer-Fc chimera; R&D Systems, Cat. no. 891-MR) and Tyro3 (rhTyro3/Dtk-Fc chimera; R&D Systems, Cat. no. 859-DK) were immobilized on the surface of CM5 sensor chip using amine coupling at the surface density of 393.0, 303.6 and 364.0 resonance units (RU), respectively. The Biacore run was performed in an automatic mode using Binding analysis wizard. Samples containing either MAb 10C9 or MAb 10G5 at concentration 10 μg/mL in HBS-EP buffer (GE Healthcare) were injected over the surfaces with immobilized antigens at flow rate of 30 μL/min for 3 min (association) followed by 5 min dissociation.
The binding experiments were performed using Biacore 3000 instrument (GE Healthcare) at 25° C. The soluble recombinant antigens corresponding to human Axl (rhAxl-Fc chimera; R&D Systems, Cat. no. 154-AL), mouse Axl (rmAxl-Fc chimera; R&D Systems, R&D Systems; Cat. no. 854-AX) and human Tyro3 (rhTyro3/Dtk-Fc chimera; R&D Systems, Cat. no. 859-DK) were immobilized on the surface of CM5 sensor chip using amine coupling at the surface density of 1,308.0, 2,115.9 and 1,429.0 RU, respectively. The Biacore runs were performed in an automatic mode using Binding analysis wizard.
The sample containing either MAb 10C9, MAb 10G5 or recombinant mouse (rm) Axl-ligand Gas6 (R&D Systems, Cat. no. 986-GS/CF) at concentration 10 μg/mL in HBS-EP buffer (GE Healthcare) was injected over the surfaces with immobilized antigens at flow rate of 30 μL/min for 3 min (association) followed by 5 min dissociation.
The sequence of Axl receptor from cynomolgus monkey (Macaca fascicularis; SEQ ID NO.43) was retrieved from WO2009062690A1. Based on the sequence, recombinant extracellular domain of cyno-Axl was generated by transient expression in CHO cells as a fusion protein with human Fc. The recombinant cyno-Axl-Fc was purified to homogeneity using Protein A-Sepharose (GE Healthcare). The binding experiments were performed using Biacore 3000 instrument (GE Healthcare) at 25° C. The soluble recombinant antigens corresponding to human Axl (rhAxl-Fc chimera; R&D Systems, Cat. no. 154-AL) and cyno-Axl were immobilized on the surface of CM5 sensor chip using amine coupling at the surface density of 775 and 880 RU, respectively. The Biacore runs were performed in an automatic mode using Binding analysis wizard.
The sample containing either MAb 10C9, MAb 10G5 or human Axl-specific MAb 5F11 (control) at concentration 10 μg/mL in HBS-EP buffer (GE Healthcare) was injected over the surfaces with immobilized antigens at flow rate of 30 μL/min for 3 min (association) followed by 5 min dissociation.
In addition, the Axl-binding properties of the chimeric antibodies c10C9 and c10G5 were tested using Biacore 3000 instrument (GE Healthcare) and a sensor chip CM5 coated with human Axl (rhAxl-Fc chimera; R&D Systems, Cat. no. 154-AL) at the surface density of 1,308.0 RU. The Biacore runs were performed in an automatic mode using Binding analysis wizard. The samples comprising either the chimeric antibodies c10C9 and c10G5 or their murine counterparts at concentration 10 μg/mL in HBS-EP buffer (GE Healthcare) were injected over the surfaces with immobilized antigens at flow rate of 30 μL/min for 3 min (association) followed by 5 min dissociation.

association rate (kon) [1]	Off-rate (koff; s^−1) ([1]; mouse MAbs)	On-rate (kon; M^−1s^−1) ([1]; mouse MAbs)	Off-rate (koff; s^−1) ([1]; chimeric antibodies)	On-rate (kon; M^−1s^−1) ([1]; chimeric antibodies)	binding to human Axl ([2]; listed as 1009)	Molecule	binding to human Axl [2]
830000 M⁻¹ s⁻¹	0.000439 s⁻¹	829000 M⁻¹ s⁻¹				10G5: mouse anti-Axl monoclonal antibody from hybridoma WR-10G5-E5, IgG1; VH SEQ ID NO: 21, VL SEQ ID NO: 22 (antibody, listed as Mus musculus, V domains shown) VH: QVQLQQSGAELVRPGASVKLSCKASGYSFTDFYINWVRQRPGQGLEWIARIFPGGDNTYYNEKFKGKATLTAEESSSTAYIQLSSLTSEDSAVYFCARRGLYYAMDYWGQGISVTVSS VL: DVLMTQTPLSLPVSLGDQASISCRSSQSLVHSNGIPYLHWYLQKPGQSPKLLIYRVSNRFSGVPDRFSGSGSGTDFTLKISRVEAEDLGVYFCSQGTHVPPTFGGGTKLEIK	bind strongly; also recorded: specific binding; also recorded: strong and specific interaction
			0.000169 s⁻¹	1.64e+06 M⁻¹ s⁻¹		c10G5: chimeric (mouse variable/human constant) IgG1 variant of antibody 10G5 (antibody, left off: a dimerising Fc or GST, chimeric (mouse variable/human constant) IgG1 variant of antibody 10G5) heavy: QVQLQQSGAELVRPGASVKLSCKASGYSFTDFYINWVRQRPGQGLEWIARIFPGGDNTYYNEKFKGKATLTAEESSSTAYIQLSSLTSEDSAVYFCARRGLYYAMDYWGQGISVTVSS light: DVLMTQTPLSLPVSLGDQASISCRSSQSLVHSNGIPYLHWYLQKPGQSPKLLIYRVSNRFSGVPDRFSGSGSGTDFTLKISRVEAEDLGVYFCSQGTHVPPTFGGGTKLEIK	bind immobilized Axl with profiles very similar to the binding profiles of the corresponding mouse antibodies
1.61e+06 M⁻¹ s⁻¹	0.000289 s⁻¹	1.61e+06 M⁻¹ s⁻¹			bind strongly	10C9: mouse anti-Axl monoclonal antibody from hybridoma UT-10C9-B9, IgG2b; VH SEQ ID NO: 3, VL SEQ ID NO: 4 (antibody, listed as Mus musculus, V domains shown) VH: QVQLQQPGPELVKPGASVKISCKTSDYNFTRYYIHWVKQRPGQGLEWIGWIYPGTGDSKYNEKFKGRATLTADTSSSTAYMQLSSQTSEDSAVYFCARNGNYWYFDVWGAGTAVTVSS VL: DIVMTQAAPSGPVTPGESVSISCRSSKSLLHSNGNTYLYWFLQRPGQSPQLLIYRMSNLASGVPDRFSGSGSGTAFTLRISRVEAEDVGIYYCMQHREYPFTFGGGTKLEIK	specific binding; also recorded: strong and specific interaction
